Test results published in PMC2756588.

T1: Abp1, P15891
T1 sequence (P15891 535-592, looked up): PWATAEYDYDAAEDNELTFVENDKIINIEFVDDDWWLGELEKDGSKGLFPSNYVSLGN

T2: Bbc1, P47068
T2 sequence (P47068 1-78, looked up): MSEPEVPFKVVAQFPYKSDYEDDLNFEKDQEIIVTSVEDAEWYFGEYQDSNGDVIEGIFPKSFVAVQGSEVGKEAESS

T3: Boi1, P38041
T3 sequence (P38041 1-86, looked up): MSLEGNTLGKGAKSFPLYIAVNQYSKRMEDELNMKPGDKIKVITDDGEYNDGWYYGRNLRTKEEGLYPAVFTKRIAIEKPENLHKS

T4: Boi2, P39969
T4 sequence (P39969 32-116, looked up): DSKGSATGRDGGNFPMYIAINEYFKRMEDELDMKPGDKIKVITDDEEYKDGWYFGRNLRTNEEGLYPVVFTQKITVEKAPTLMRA

T5: Bud14, P27637
T5 sequence (P27637 247-328, looked up): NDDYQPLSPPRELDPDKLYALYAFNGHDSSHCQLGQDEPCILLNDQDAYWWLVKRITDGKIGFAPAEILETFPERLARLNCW

T6: Bzz1-1, P38822
T6 sequence (P38822 478-572, looked up): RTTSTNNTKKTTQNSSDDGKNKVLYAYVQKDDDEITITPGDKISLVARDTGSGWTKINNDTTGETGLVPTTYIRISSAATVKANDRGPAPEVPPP

T7: Bzz1-2, P38822
T7 sequence (P38822 568-633, looked up): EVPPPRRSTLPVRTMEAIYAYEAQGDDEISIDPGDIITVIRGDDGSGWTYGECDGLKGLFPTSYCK

T8: Cdc25, P04821
T8 sequence (P04821 50-136, looked up): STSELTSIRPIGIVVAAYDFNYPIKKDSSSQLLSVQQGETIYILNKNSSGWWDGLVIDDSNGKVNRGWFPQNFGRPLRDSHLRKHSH

T9: Cyk3, Q07533
T9 sequence (Q07533 1-83, looked up): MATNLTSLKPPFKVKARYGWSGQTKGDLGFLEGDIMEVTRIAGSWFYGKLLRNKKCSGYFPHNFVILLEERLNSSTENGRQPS

T10: Fus1, P11710
T10 sequence (P11710 432-512, looked up): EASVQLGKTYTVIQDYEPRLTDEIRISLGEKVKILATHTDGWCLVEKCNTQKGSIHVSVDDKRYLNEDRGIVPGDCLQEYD

T11: Hof1, Q05080
T11 sequence (Q05080 590-669, looked up): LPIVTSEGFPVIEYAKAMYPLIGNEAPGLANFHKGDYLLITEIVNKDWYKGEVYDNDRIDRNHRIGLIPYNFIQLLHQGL

T12: Hse1, P38753
T12 sequence (P38753 208-285, looked up): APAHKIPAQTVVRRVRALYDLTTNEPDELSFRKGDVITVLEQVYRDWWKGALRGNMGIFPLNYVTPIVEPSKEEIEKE

T13: Lsb1, P53281
T13 sequence (P53281 45-122, looked up): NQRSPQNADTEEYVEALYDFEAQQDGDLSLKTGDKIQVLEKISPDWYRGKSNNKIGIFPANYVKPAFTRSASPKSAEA

T14: Lsb3, P43603
T14 sequence (P43603 385-451, looked up): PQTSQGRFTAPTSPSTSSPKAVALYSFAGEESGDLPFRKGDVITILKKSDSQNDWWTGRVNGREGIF

T15: Lsb4, P32793
T15 sequence (P32793 402-468, looked up): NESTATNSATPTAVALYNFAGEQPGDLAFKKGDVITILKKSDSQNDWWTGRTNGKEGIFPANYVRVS

T16: Myo5, Q04439
T16 sequence (Q04439 1072-1160, looked up): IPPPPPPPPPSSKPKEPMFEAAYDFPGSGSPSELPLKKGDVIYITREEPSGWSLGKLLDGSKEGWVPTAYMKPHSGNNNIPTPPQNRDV

T17: Nbp2, Q12163
T17 sequence (Q12163 103-180, looked up): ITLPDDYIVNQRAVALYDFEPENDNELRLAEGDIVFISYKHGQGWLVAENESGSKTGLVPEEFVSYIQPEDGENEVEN

T18: Pex13, P80667
T18 sequence (P80667 295-386, looked up): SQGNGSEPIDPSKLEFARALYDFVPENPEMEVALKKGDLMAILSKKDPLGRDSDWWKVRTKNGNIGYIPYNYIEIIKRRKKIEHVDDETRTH

T19: Pin3, Q06449
T19 sequence (Q06449 53-122, looked up): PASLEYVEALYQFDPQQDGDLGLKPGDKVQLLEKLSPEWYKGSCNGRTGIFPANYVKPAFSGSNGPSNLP

T20: Sla1-2, P32790
T20 sequence (P32790 60-140, looked up): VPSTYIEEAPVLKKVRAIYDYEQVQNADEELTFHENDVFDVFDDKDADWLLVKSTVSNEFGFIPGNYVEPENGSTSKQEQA

T21: Sla1-3, P32790
T21 sequence (P32790 344-424, looked up): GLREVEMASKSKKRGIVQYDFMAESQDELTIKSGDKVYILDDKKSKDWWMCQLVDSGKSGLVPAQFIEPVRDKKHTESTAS


Columns and labels:
Assay in all cases: SPOT array
[1] = target: T1, Abp1, P15891; conditions: median of control spots 935
[2] = target: T2, Bbc1, P47068; conditions: median of control spots 796
[3] = target: Bem1-1, P29366; conditions: median of control spots 4282
[4] = target: Bem1-2, P29366; conditions: median of control spots 4347
[5] = target: T3, Boi1, P38041; conditions: median of control spots 1162
[6] = target: T4, Boi2, P39969; conditions: median of control spots 1161
[7] = target: T5, Bud14, P27637; conditions: median of control spots 956
[8] = target: T6, Bzz1-1, P38822; conditions: median of control spots 4446
[9] = target: T7, Bzz1-2, P38822; conditions: median of control spots 4538
[10] = target: T8, Cdc25, P04821; conditions: median of control spots 969
[11] = target: T9, Cyk3, Q07533; conditions: median of control spots 1451
[12] = target: T10, Fus1, P11710; conditions: median of control spots 1200
[13] = target: GST; conditions: median of control spots 978
[14] = target: T11, Hof1, Q05080; conditions: median of control spots 4086
[15] = target: T12, Hse1, P38753; conditions: median of control spots 1727
[16] = target: T13, Lsb1, P53281; conditions: median of control spots 388
[17] = target: T14, Lsb3, P43603; conditions: median of control spots 406
[18] = target: T15, Lsb4, P32793; conditions: median of control spots 397
[19] = target: Myo3, P36006; conditions: median of control spots 468
[20] = target: T16, Myo5, Q04439; conditions: median of control spots 471
[21] = target: T17, Nbp2, Q12163; conditions: median of control spots 357
[22] = target: T18, Pex13, P80667; conditions: median of control spots 1341
[23] = target: T19, Pin3, Q06449; conditions: median of control spots 2171
[24] = target: Rvs167, P39743; conditions: median of control spots 2707
[25] = target: Sho1, P40073; conditions: median of control spots 1148
[26] = target: T20, Sla1-2, P32790; conditions: median of control spots 712
[27] = target: T21, Sla1-3, P32790; conditions: median of control spots 5475

Chain of Sho1, P40073 (P40073 287-367): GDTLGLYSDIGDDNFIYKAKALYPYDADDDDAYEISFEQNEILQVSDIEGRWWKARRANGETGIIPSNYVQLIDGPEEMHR
Chain of Bem1-2, P29366 (P29366 139-227): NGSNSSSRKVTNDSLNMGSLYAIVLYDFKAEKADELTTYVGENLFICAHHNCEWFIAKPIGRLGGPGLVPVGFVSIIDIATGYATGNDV
Chain of Rvs167, P39743 (P39743 419-482): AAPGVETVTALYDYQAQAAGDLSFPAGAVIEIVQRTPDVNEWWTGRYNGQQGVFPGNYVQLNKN
Chain of Bem1-1, P29366 (P29366 55-141): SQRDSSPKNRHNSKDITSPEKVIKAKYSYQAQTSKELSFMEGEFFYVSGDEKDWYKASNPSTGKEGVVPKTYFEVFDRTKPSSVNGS

| Binder | SPOT intensity [1] | SPOT intensity [2] | SPOT intensity [3] | SPOT intensity [4] | SPOT intensity [5] | SPOT intensity [6] | SPOT intensity [7] | SPOT intensity [8] | SPOT intensity [9] | SPOT intensity [10] | SPOT intensity [11] | SPOT intensity [12] | SPOT intensity [13] | SPOT intensity [14] | SPOT intensity [15] | SPOT intensity [16] | SPOT intensity [17] | SPOT intensity [18] | SPOT intensity [19] | SPOT intensity [20] | also measured |
| --- | --- | --- | --- | --- | --- | --- | --- | --- | --- | --- | --- | --- | --- | --- | --- | --- | --- | --- | --- | --- | --- |
| SLSRRRFSLPSMPNV | 70 | 98 | 0 | 53 | 1 | 1 | 15 | 3 | 17 | 35 | 1 | 27 | 0 | 77 | 97 | 1050 | 4 | 9 | 27 | 4 | SPOT intensity [21]: 34; SPOT intensity [22]: 28; SPOT intensity [23]: 66; SPOT intensity [24]: 4; SPOT intensity [25]: 84; SPOT intensity [26]: 2; SPOT intensity [27]: 388 |
| RKLRTVPGVPLIHLT | 5 | 34 | 0 | 0 | 0 | 0 | 3 | 1 | 0 | 0 | 0 | 2 | 1 | 2 | 0 | 0 | 2 | 5 | 8 | 0 | SPOT intensity [21]: 0; SPOT intensity [22]: 4; SPOT intensity [23]: 3; SPOT intensity [24]: 43; SPOT intensity [25]: 6; SPOT intensity [26]: 1; SPOT intensity [27]: 5 |
| GLRRARYKFPGQQKI | 47 | 79 | 0 | 2 | 3 | 0 | 9 | 2 | 1 | 15 | 0 | 14 | 3 | 6 | 12 | 71 | 0 | 2 | 4 | 0 | SPOT intensity [21]: 22; SPOT intensity [22]: 2; SPOT intensity [23]: 4; SPOT intensity [24]: 6; SPOT intensity [25]: 69; SPOT intensity [26]: 1; SPOT intensity [27]: 50 |
| AGKRRLPLVRFKASD | 262 | 507 | 2 | 3 | 16 | 1 | 28 | 0 | 2 | 55 | 9 | 23 | 4 | 7 | 9 | 18 | 16 | 18 | 22 | 2 | SPOT intensity [21]: 125; SPOT intensity [22]: 4; SPOT intensity [23]: 8; SPOT intensity [24]: 6; SPOT intensity [25]: 260; SPOT intensity [26]: 3; SPOT intensity [27]: 27 |
| KRKRRLPVSEDTNTK | 78 | 77 | 1 | 0 | 6 | 2 | 22 | 3 | 1 | 16 | 8 | 150 | 6 | 0 | 4 | 1 | 8 | 4 | 9 | 0 | SPOT intensity [21]: 8; SPOT intensity [22]: 0; SPOT intensity [23]: 4; SPOT intensity [24]: 1; SPOT intensity [25]: 54; SPOT intensity [26]: 0; SPOT intensity [27]: 21 |
| NRLRKRLNLPSEISI | 36 | 74 | 0 | 3 | 12 | 3 | 7 | 6 | 13 | 42 | 8 | 321 | 1 | 45 | 99 | 459 | 3 | 0 | 4 | 2 | SPOT intensity [21]: 32; SPOT intensity [22]: 2; SPOT intensity [23]: 17; SPOT intensity [24]: 0; SPOT intensity [25]: 58; SPOT intensity [26]: 1; SPOT intensity [27]: 141 |
